Data on three molecules can be found in patent US20230097381A1, “COMPOSITION, KIT AND METHOD FOR DIAGNOSIS AND TREATMENT OF PROSTATE CANCER” (RADIOMEDIX, INC., priority 2020, published 2023).

Series [1] concerns LNCap xenografts. As to the kind of experiment: in vivo. More on the design: species or system athymic nude mice. Particulars: mouse. Here is the method: (§1) Athymic strains of mice bearing LNCap xenografts were injected via the tail vein with 15 μCi of ^212Pb-DOTAM-PSMA reconstituted in 150-200 μL of saline. At 1 h, 3 h, post injection, while under anesthesia blood was collected by cardiac puncture and mice were sacrificed by cervical dislocation. The heart, lung liver, stomach, pancreas, spleen fat, kidney, muscle, intestines, skin and tumor were collected. Each organ was weighed, and the tissue radioactivity was measured with an automated gamma counter (2470 Wizard2 Gamma Counter, Perkin-Elmer, Waltham, Mass.). The percentage of injected dose per gram of tissue (% ID/g) was calculated. AH measurements were corrected for decay.

Series [2] in a line: in vivo. More on the design: species or system athymic nude mice. The note with it: athymic nude, mouse, iv, 15 uCi, total radioactivity. Here is the method:
as §1

For series [3], the system named is LNCap xenografts. As to the kind of experiment: in vivo. Particulars: mouse. More on the design: species or system athymic nude mice. Here is the method: as §1, with “with 40” for “with 15”, “of ^203Pb-DOTAM-PSMA” for “of ^212Pb-DOTAM-PSMA”, “in 200-250” for “in 150-200”, “1 h and” for “1 h,”, “3 h” for “3 h,”, “calculated. All” for “calculated. AH”
This is another data set of the same source.

The nature of series [4]: in vivo. The note with it: athymic nude, mouse, iv, 40 uCi, total radioactivity. More on the design: species or system athymic nude mice. Here is the method:
as §1, with “with 40” for “with 15”, “of ^203Pb-DOTAM-PSMA” for “of ^212Pb-DOTAM-PSMA”, “in 200-250” for “in 150-200”, “1 h and” for “1 h,”, “3 h” for “3 h,”, “calculated. All” for “calculated. AH”

Series [5] has as its system PSMA-overexpressing LNCap and 22Rv1-derived xenografts. More on the design: species or system Athymic Nude Mice. Particulars: mouse, in vivo. Here is the method: About 5×10^6 LNCap and 22Rv1 cells suspended in 100 μL of RPMI 1640 with 50% Matrigel (Corning, Corning, N.Y.) were subcutaneously injected into upper flank of 6-7-week-old mice. Xenografts were generated in Athymic Nude Mice (Envigo, Indianapolis, Ind. and Taconic, Rensselaer, N.Y.). When xenograft tumor reached the size of 0.25 cm^3 in diameter, all mice were randomly divided in groups for PET imaging and biodistribution studies.
PET/X-Ray imaging studies were performed using GENISYS^4 scanner (Sofie Bioscience, Curlver City, Calif.). Mice were anesthetized using with isoflurane (2% in 98% oxygen) and their temperature was kept at 38° C. with a heating lamp during injection of the agent and image acquisition All images were corrected for photon attenuation, but scatter correction was not applied. Maximum-Likehood Expectation Maximization was used to create final images volumes. Static PET scans were acquired approximately at 1 h, 2 h, 4 h after intravenous injection of ^64Cu-DOTAM-PSMA in 200 μL volume. The image acquisition time was 10 minutes. VivoQuant software (Invicro, Boston, Mass.) was used to determine the ROI (Sum) for tumor, liver, kidney, muscle and salivary gland which were equivalent to % ID/g uptake of agent at various time points.

For series [6], the system named is LNCap and 22Rv1 xenografts. More on the design: species or system R2G2 strain of mice. The note with it: mouse, in vivo. Here is the method:
[…] strains of mice bearing LNCap and 22Rv1 xenografts were injected via the tail vein with 50-100 μCi of ^64Cu-DOTAM-PSMA reconstituted in 150-200 μL of saline. At 1 h, 2 h, and 24 hrs. post injection, while under anesthesia blood was collected by cardiac puncture and mice were sacrificed by cervical dislocation. The heart, lung liver, stomach, pancreas, spleen fat, kidney, muscle, intestines, skin and tumor were collected. Each organ was weighed, and the tissue radioactivity was measured with an automated gamma counter (2470 Wizard2 Gamma Counter, Perkin-Elmer, Waltham, Mass.). The percentage of injected dose per gram of tissue (% ID/g) was calculated. All measurements were corrected for decay.

The nature of series [7]: in vivo. More on the design: species or system athymic nude mice. Particulars: athymic nude, mouse, iv, total radioactivity. Here is the method: Mice bearing LNCap and 22Rv1 xenografts were injected via the tail vein with 50-100 μCi of ^64Cu-DOTAM-PSMA reconstituted in 150-200 μL of saline. At 1 h, 2 h, and 24 hrs. post injection, while under anesthesia blood was collected by cardiac puncture and mice were sacrificed by cervical dislocation. The heart, lung liver, stomach, pancreas, spleen fat, kidney, muscle, intestines, skin and tumor were collected. Each organ was weighed, and the tissue radioactivity was measured with an automated gamma counter (2470 Wizard2 Gamma Counter, Perkin-Elmer, Waltham, Mass.). The percentage of injected dose per gram of tissue (% ID/g) was calculated. All measurements were corrected for decay.

As a reminder, the tissue uptake is the percentage of the injected dose found per gram of tissue. Consider `NC(=O)CN1CCN(CC(N)=O)CCN(CC(=O)N[C@H](Cc2ccccc2)C(=O)N[C@H](Cc2ccccc2)C(=O)N[C@H](CCCCNC(=O)CCCCCCC(=O)NCCCC[C@H](NC(=O)N[C@@H](CCC(=O)O)C(=O)O)C(=O)O)C(=O)O)CCN(CC(N)=O)CC1` [^212Pb-DOTAM-PSMA, metal not drawn], for which, in series [1], the “decrease of renal retention” value stood at 55%; the “uptake in bone and spleen” value was “not uptake of agent in bone and spleen”. For the same molecule, in series [2] (Tumor uptake), the tissue uptake at 1 h was found to be 5.7 ± 0.9 %ID/g and the tissue uptake at 3 h is 7.2 ± 2.6 %ID/g. In series [2] (renal retention), the tissue uptake at 1 h worked out at 32.2 ± 15.6 %ID/g and the tissue uptake at 3 h is 17.7 ± 9.4 %ID/g.
Consider `NC(=O)CN1CCN(CC(N)=O)CCN(CC(=O)N[C@H](Cc2ccccc2)C(=O)N[C@H](Cc2ccccc2)C(=O)N[C@H](CCCCNC(=O)CCCCCCC(=O)NCCCC[C@H](NC(=O)N[C@@H](CCC(=O)O)C(=O)O)C(=O)O)C(=O)O)CCN(CC(N)=O)CC1` [^203Pb-DOTAM-PSMA, metal not drawn], for which, in series [3], the “decrease of renal retention” value is 32% and the “normal organs distribution, ^203Pb- versus ^212Pb-DOTAM-PSMA” value is “very similar normal organs distribution”. In addition, in series [4], the tissue uptake at 1 h is 16.1 ± 0.8 %ID/g and the tissue uptake at 3 h is more than 4.8 %ID/g.
On to `NC(=O)CN1CCN(CC(N)=O)CCN(CC(=O)N[C@H](Cc2ccccc2)C(=O)N[C@H](Cc2ccccc2)C(=O)N[C@H](CCCCNC(=O)CCCCCCC(=O)NCCCC[C@H](NC(=O)N[C@@H](CCC(=O)O)C(=O)O)C(=O)O)C(=O)O)CCN(CC(N)=O)CC1` [^64Cu-DOTAM-PSMA, metal not drawn], for which the “highest non-target uptake of agent (organ)” value in series [5] was “liver”. Also, the “retention in LNCap and 22Rv1-derived tumors (microPET)” value in series [5] is “confirmed retention”. Besides, in series [5], the “tumor retention in LNCap and 22Rv1 cancer cells (microPET)” value was “confirmed its tumor retention”. Further, in series [6], the “liver retention of trans-chelated Cu64, comparison of strains” value is “higher in R2G2 mice strain compared to NOG strain but it was still lower the one observed in athymic nude”. Also, the “tumor retention, R2G2 strain versus NOG strain” value in series [6] was “much more favorable in R2G2 strain than NOG strain”. Further, the tissue uptake at 24 h amounted to 10 ± 11.1 %ID/g in series [7] (Retention in tumor), 7.8 ± 7.9 %ID/g in series [7] (uptake in kidneys) and 12.4 ± 11.9 %ID/g in series [7] (uptake in liver). Also, the tissue uptake at 2 h in series [7] (Tumor uptake) came to 24.8 ± 31.1 %ID/g; in series [7] (off-target accumulation in kidneys) it was 20 ± 2.9 %ID/g; in series [7] (off-target accumulation in liver), 45.8 ± 6.2 %ID/g. Moreover, the tissue uptake at 4 h came to 9.7 ± 10.9 %ID/g in series [7] (Tumor uptake) and 13 ± 0.6 %ID/g in series [7] (renal retention).
